Data taken from PMC9755262 (Nature Communications, 2022).
Residue numbers refer to the chain shown, from its start. Names may count otherwise.

Assays:
[1] = target: GST-NUT8 wild type (396-470) (UniProt Q86Y26); assay: BLI; GST-NUT8 wild type or mutants loaded on Anti-GST biosensors, TAZ2 (1723-1836) as analyte; 25 °C; 1x PBS, 0.1% BSA, 0.02% Tween 20; steady-state analysis
[2] = target: T1, p300 TAZ2 domain (1723-1836), Q09472; assay: BLI; conditions: chain shown with the change, read off a plot
T1 chain: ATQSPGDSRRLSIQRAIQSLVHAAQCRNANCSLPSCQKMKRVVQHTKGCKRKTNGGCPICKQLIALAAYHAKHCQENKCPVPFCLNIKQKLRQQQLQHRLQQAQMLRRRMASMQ

[3] = target: T2, NUT4 (347-480), Q86Y26; assay: SEC-MALS; Superdex 75 Increase 10/300 GL, 20 mM HEPES pH 7.0, 300 mM NaCl, 5 µM ZnSO4, 0.5 mM TCEP; 50 µl at 2 mg/ml injected
T2 chain: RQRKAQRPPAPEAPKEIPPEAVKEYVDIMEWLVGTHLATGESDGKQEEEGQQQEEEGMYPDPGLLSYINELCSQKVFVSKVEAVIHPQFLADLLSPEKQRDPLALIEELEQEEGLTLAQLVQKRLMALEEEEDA

[4] = target: T3, NUT-F1c (347-588), tag cleaved (UniProt Q86Y26 347-588); assay: SEC; complex run on HiLoad Superdex 200, Superdex 200 Increase 10/300 GL or Superdex 75 Increase 10/300 GL; SDS-PAGE of the peak fractions; conditions: both partners purified
T3 construct: not shown: His6-GST (pETM-30) or His6 (pETM11), N-terminal, cleaved

**Q.** How did the Kd [1] turn out when “p300 TAZ2 domain (1723-1836) (from UniProt Q09472 1723-1836) (domain or fragment)” was run?
**A.** 960 nM

B1: GST-NUT8 wild type D407K; L410A; Y413K; C418G; F423A; V424G; E428S; V430G; P433G; F435S; L439G; L440S; D447K; A450G; L451S; E454K; L455S; E458K; E459S; L461G; … (protein)
chain: GQQQEEEGMYPKPGALSKINELGSQKVAGSKVSAGIHGQSLADGSSPEKQRKPLGSIEKSEQKSGGSLAQLVQKRLMALEEEEDAE
**Q.** With B1 as the molecule, how does the response ([2]; TAZ2 10 µM, parent: est. 0.22) read?
**A.** 0.03 nm

B2: GST-NUT8 wild type D447A; L449A; A450G; L451A; E453A; E454A; L455A; E456A; E458A; E459A; L461A; T462A (protein)
chain: GQQQEEEGMYPDPGLLSYINELCSQKVFVSKVEAVIHPQFLADLLSPEKQRAPAGAIAAAAQAAGAALAQLVQKRLMALEEEEDAE
**Q.** For B2, which response ([2]; TAZ2 2.5 µM, parent: est. 0.18) is on record?
**A.** 0.07 nm

**Q.** And the response ([2]; TAZ2 5 µM, parent: est. 0.21)?
**A.** 0.11 nm

**Q.** And the response ([2]; TAZ2 10 µM, parent: est. 0.22)?
**A.** 0.13 nm

B3: GST-NUT8 wild type L436A; L439A; L440A; D447A; L449A; A450G; L451A; E453A; E454A; L455A; E456A; E458A; E459A; L461A; T462A (protein)
chain: B2 chain with L41A, L44A, L45A
**Q.** Which results are given for B3?
**A.** response ([2]; TAZ2 2.5 µM, parent: est. 0.18): 0.075 nm; response ([2]; TAZ2 5 µM, parent: est. 0.21): 0.14 nm; response ([2]; TAZ2 10 µM, parent: est. 0.22): 0.2 nm

B4: p300 TAZ2 domain (construct limits not told for the experiment) (domain or fragment)
chain: T1 chain
modifications: not checked
**Q.** B4 was tested. Which stoichiometry N [3] did it give?
**A.** 1

B5: GST-NUT8 wild type L410A; L411A; Y413A; L417A; C418A; F423A; V424A; V427A; V430A; I431A; F435A; L436A; L439A; L440A; D447A; L449A; A450G; L451A; E453A; E454A; … (protein)
chain: GQQQEEEGMYPDPGAASAINEAASQKVAASKAEAAAHPQAAADAASPEKQRAPAGAIAAAAQAAGAALAQLVQKRLMALEEEEDAE
**Q.** With B5 as the molecule, how does the response ([2]; TAZ2 10 µM, parent: est. 0.22) read?
**A.** 0.085 nm

B6: p300 CH3 domain (1660-1815) (domain or fragment, UniProt Q09472 1660-1815, looked up)
chain: TQSQDRFVYTCNECKHHVETRWHCTVCEDYDLCITCYNTKNHDHKMEKLGLGLDDESNNQQAAATQSPGDSRRLSIQRCIQSLVHACQCRNANCSLPSCQKMKRVVQHTKGCKRKTNGGCPICKQLIALCCYHAKHCQENKCPVPFCLNIKQKLRQ
notes: p300 CH3 domain, residues 1660-1815, in pGEX-5x1 with a TEV-cleavable GST tag
**Q.** Does B6 bind [4]?
**A.** binds
